The experiment concerns the target human high-affinity IL2 receptor (IL2Rαβγ) (human) (UniProt P01589). Nature of the experiment: cell-based or functional assay.
Sequence of UniProt P01589 (P01589 22-272, chain 1 of 3): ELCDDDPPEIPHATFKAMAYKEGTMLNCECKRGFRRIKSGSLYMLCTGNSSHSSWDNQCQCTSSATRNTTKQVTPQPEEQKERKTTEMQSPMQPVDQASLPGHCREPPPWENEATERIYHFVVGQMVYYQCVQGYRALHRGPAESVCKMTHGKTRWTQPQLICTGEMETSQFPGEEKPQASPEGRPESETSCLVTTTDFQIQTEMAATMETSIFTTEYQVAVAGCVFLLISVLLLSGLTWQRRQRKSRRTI
Sequence of UniProt P01589 (P14784 27-551, chain 2 of 3, further chain): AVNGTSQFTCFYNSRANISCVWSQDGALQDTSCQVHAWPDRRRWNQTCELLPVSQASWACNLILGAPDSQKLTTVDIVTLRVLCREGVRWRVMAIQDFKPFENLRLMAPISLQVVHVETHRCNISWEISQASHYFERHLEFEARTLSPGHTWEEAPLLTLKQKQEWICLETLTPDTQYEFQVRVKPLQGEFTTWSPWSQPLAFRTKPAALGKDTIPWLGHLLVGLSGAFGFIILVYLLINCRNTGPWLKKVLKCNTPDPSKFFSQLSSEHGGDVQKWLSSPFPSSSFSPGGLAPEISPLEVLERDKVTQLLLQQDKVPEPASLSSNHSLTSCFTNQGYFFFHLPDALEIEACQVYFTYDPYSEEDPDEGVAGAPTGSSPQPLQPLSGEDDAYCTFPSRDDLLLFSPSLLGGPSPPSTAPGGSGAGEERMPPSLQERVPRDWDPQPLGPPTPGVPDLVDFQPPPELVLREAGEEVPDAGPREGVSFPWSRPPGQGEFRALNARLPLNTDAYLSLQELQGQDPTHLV
Sequence of UniProt P01589 (P31785 23-369, chain 3 of 3, further chain): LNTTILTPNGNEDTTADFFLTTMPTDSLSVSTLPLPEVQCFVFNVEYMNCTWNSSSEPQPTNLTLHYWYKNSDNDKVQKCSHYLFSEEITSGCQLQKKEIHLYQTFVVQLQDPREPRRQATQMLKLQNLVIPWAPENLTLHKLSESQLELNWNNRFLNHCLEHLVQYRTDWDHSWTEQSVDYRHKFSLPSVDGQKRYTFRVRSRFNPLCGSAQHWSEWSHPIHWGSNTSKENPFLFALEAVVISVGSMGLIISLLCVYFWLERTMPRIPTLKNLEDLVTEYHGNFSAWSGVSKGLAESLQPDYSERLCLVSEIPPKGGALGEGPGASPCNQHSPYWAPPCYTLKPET

hAlb-hIL2 (ligand): the EC50, STAT5 phosphorylation, human CD4+CD25+ Treg cells (%-supernatant) is 0.0311.

(Values after patent US20220356223A1.)
